Molecular target: Shp2 (UniProt Q06124)
Assay: GST pull-down from lysate, LC-MS/MS
Settings: reference: wild-type GST-PD-1ICD; sites Y223,Y248

PD-1 ICD, 194-288 (from UniProt Q15116) PD-1ICD-FF (Y223F, Y248F)
binding against the reference: weaker

Reference: paper PMC9287124
